This note sets out measurements from article PMC5667929, “Combinatorial action of Grainyhead, Extradenticle and Notch in regulating Hox mediated apoptosis in Drosophila larval CNS” (PLoS Genetics, 2017).

The assay deals with T1, His tagged Grh (551-1333 aa) (Drosophila, UniProt P13002 551-1333).
T1 construct: Grainyhead (Grh), Drosophila transcription factor, residues 551-1333; also called His-Grh; Grainyhead; source: bacterial culture (induced two hours with 0.5mM IPTG at 18°C), in lysate for the pull-down
The assay can be described thus: native gel or EMSA; proteins (100 or 200 ng) mixed with DNA oligos of motifs from the 1Kb F3B3 enhancer; complexes seen on DNA only; 20 ul, room temperature, 30 minutes; binding buffer with Tris pH 7.5, KCl, MgCl2, EDTA, DTT, BSA, glycerol, polydIdC. Particulars: both partners purified. In general terms: Mobility shift assays separate free from complexed probe on a gel.

T1 sequence (P13002 551-1333): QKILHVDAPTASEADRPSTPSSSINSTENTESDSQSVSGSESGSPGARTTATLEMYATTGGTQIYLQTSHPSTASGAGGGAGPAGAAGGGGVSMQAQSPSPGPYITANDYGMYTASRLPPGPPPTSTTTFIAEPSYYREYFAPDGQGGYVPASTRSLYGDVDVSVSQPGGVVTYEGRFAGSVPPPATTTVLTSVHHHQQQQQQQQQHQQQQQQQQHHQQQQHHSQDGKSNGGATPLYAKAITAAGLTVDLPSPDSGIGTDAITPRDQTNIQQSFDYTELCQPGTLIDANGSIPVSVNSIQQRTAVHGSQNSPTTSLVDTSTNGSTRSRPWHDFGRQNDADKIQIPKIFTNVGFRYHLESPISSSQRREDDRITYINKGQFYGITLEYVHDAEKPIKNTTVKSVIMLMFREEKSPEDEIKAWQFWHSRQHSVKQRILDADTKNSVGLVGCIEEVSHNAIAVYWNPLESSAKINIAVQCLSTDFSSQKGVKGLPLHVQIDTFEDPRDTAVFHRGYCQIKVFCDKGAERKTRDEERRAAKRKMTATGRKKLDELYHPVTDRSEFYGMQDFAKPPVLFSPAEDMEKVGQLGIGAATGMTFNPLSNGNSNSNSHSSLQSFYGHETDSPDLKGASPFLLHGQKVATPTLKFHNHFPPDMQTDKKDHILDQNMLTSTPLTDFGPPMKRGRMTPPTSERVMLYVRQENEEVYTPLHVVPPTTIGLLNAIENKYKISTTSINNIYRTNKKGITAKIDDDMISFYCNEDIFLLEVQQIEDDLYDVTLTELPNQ

B1: 6X His-tagged AbdA (residues 261-590) (domain or fragment)
chain: not shown
notes: Abdominal-A (AbdA), Drosophila Hox protein, residues 261-590; also called Hox
For B1, the binding result was “binds”.
